Assay [1] concerns the target T1, human PD-1 (on cells) (human, UniProt Q15116 25-288). The assay is described as follows: cell-based or functional assay.
The target of assay [2] is T2, human CD137-ECD-C121S-Fc mutant K114E (human, UniProt Q07011 24-186).
T2 construct: Mutant of human CD137-ECD-C121S-Fc; not shown: Fc part
The assay is described as follows: point ELISA on coated CD137-Fc mutant, mean of normalised absorbance over eight concentrations. The text has this: (§1) The CD137-Fc mutants are generated using the standard protocol of a commercially-available site directed mutagenesis kit (Quickchange II kit, […]). The wild-type and mutant CD137-Fc proteins are expressed and purified. […] To determine the impact of a mutation on the binding of the antibodies, a point ELISA assay against CD137-Fc wild type and mutants is utilized. The wells of a 96-well Immulon 4HBX ELISA plate are coated overnight with 50 nanograms of human CD137-ECD-C121S-Fc or its mutants in 100 microliters of PBS, pH 7.2 with mild agitation at 4° C. After blocking (with 5% BSA in PBST) and washing, a five-fold dilution eight-point series (100 to 0.00128 nanomolar) of the designated antibody is added and incubated with mild agitation at room temperature for 1 h. The wells are washed and a HRP-conjugated secondary antibody (1:10000 dilution of HRP-conjugated goat anti-Fab antibody (Jackson ImmunoResearch Laboratories) is added and incubated at room temperature following standard protocol. TMB peroxidase chromogenic substrate and stop solution are used according to manufacturer's instruction for visualization and detection of signals. Absorbance readings for each concentration point is normalized by the absorbance of the wild-type interaction. For each mutant, the mean of the normalized ratio for the eight concentrations is determined.

Assay [3] concerns the target T3, human CD137-ECD-C121S-Fc mutant N42S (human, UniProt Q07011 24-186).
T3 construct: Mutant of human CD137-ECD-C121S-Fc; not shown: Fc part
The assay is described as above.
Excerpt: as §1

The target of assay [4] is T4, human CD137-ECD-C121S-Fc mutant A97P (human, UniProt Q07011 24-186).
T4 construct: Mutant of human CD137-ECD-C121S-Fc; not shown: Fc part
T4 sequence (Q07011 24-186 A97P/C121S): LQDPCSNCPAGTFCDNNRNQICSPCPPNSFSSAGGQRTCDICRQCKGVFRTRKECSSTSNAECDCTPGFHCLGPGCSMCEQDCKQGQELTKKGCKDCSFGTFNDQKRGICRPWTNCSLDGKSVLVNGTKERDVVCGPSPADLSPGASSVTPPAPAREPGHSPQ
Described as above.
Excerpt: as §1

The target of assay [5] is T5, human CD137-ECD-C121S-Fc mutant K115Q (human, UniProt Q07011 24-186).
T5 construct: Mutant of human CD137-ECD-C121S-Fc; not shown: Fc part
T5 sequence (Q07011 24-186 K115Q/C121S): as the sequence (Q07011 24-186 A97P/C121S) above, with P74A, K92Q counted along it
The description is as above.
Excerpt: as §1

Assay [6] concerns the target T6, human CD137-ECD-C121S-Fc mutant M101R (human, UniProt Q07011 24-186).
T6 construct: Mutant of human CD137-ECD-C121S-Fc; not shown: Fc part
The assay is described as above.
Excerpt: as §1

Assay [7] deals with T7, human CD137-ECD-C121S-Fc mutant G98K (human, UniProt Q07011 24-186).
T7 construct: Mutant of human CD137-ECD-C121S-Fc; not shown: Fc part
T7 sequence (Q07011 24-186 G98K/C121S): as the sequence (Q07011 24-186 A97P/C121S) above, with P74A, G75K counted along it
Described as above.
Excerpt: as §1

Assay [8] deals with T8, human CD137-ECD-C121S-Fc mutant S100T (human, UniProt Q07011 24-186).
T8 construct: Mutant of human CD137-ECD-C121S-Fc; not shown: Fc part
T8 sequence (Q07011 24-186 S100T/C121S): as the sequence (Q07011 24-186 A97P/C121S) above, with P74A, S77T counted along it
The description is as above.
Excerpt: as §1

The target in assay [9] is T9, human CD137-ECD-C121S-Fc mutant P27L (human, UniProt Q07011 24-186).
T9 construct: Mutant of human CD137-ECD-C121S-Fc; not shown: Fc part
T9 sequence (Q07011 24-186 P27L/C121S): as the sequence (Q07011 24-186 A97P/C121S) above, with P4L, P74A counted along it
Described as above.
Excerpt: as §1

Assay [10] has as its target T10, human CD137-ECD-C121S-Fc mutant G98Q (human, UniProt Q07011 24-186).
T10 construct: Mutant of human CD137-ECD-C121S-Fc; not shown: Fc part
The assay is described as above.
Excerpt: as §1

The target of assay [11] is T11, human CD137-ECD-C121S-Fc mutant Q67V (human, UniProt Q07011 24-186).
T11 construct: Mutant of human CD137-ECD-C121S-Fc; not shown: Fc part
T11 sequence (Q07011 24-186 Q67V/C121S): as the sequence (Q07011 24-186 A97P/C121S) above, with Q44V, P74A counted along it
The assay is described as above.
Excerpt: as §1

The target of assay [12] is T12, human CD137-ECD-C121S-Fc mutant Q104K (human, UniProt Q07011 24-186).
T12 construct: Mutant of human CD137-ECD-C121S-Fc; not shown: Fc part
T12 sequence (Q07011 24-186 Q104K/C121S): as the sequence (Q07011 24-186 A97P/C121S) above, with P74A, Q81K counted along it
Described as above.
Excerpt: as §1

Assay [13] has as its target T13, human CD137-ECD-C121S-Fc mutant Q67R (human, UniProt Q07011 24-186).
T13 construct: Mutant of human CD137-ECD-C121S-Fc; not shown: Fc part
Described as above.
Excerpt: as §1

Assay [14] addresses T14, human CD137-ECD-C121S-Fc mutant D63N (human, UniProt Q07011 24-186).
T14 construct: Mutant of human CD137-ECD-C121S-Fc; not shown: Fc part
The assay is described as above.
Excerpt: as §1

Assay [15] addresses T15, human CD137-ECD (human, UniProt Q07011 24-186).
T15 construct: In-house generated soluble ECD
Nature of the assay: SPR (Biacore 2000) at 37 C, antibody captured on Protein A, soluble CD137-ECD as analyte, steady state affinity fit.

Assay [16] addresses human CD137 (on cells) (human, UniProt Q07011 24-255). Nature of the assay: cell-based or functional assay.
Assay [17] concerns the target T16, human PD-1-extracellular domain (ECD) (human, UniProt Q15116 25-170).
T16 construct: also called human PD-1-ECD; PD-1-ECD
Nature of the assay: SPR (Biacore 2000) at 37 C, antibody captured on Protein A, soluble PD-1-ECD as analyte, 1:1 Langmuir fit, mean ± SD. The method, then:
Samples are diluted in HBS-EP+(10 mM HEPES, 150 mM NaCl, 0.05% Tween-20, pH 7.6) running buffer (Teknova Cat #H8022). Protein A (5 mg/mL, Calbiochem Cat #539202) is immobilized on flow cells 1 to 4 of a CM5 senor chip (GE Healthcare Cat #29149604) at a level of 3000 to 4000 response units (RUs) using amine coupling chemistry. Briefly, the surfaces of all four flow cells are activated by injecting a 1:1 mixture of EDC/NHS for 7-minutes at 10 μL/minute. Protein A is diluted to 200 μg/mL in 10 mM acetate, pH 4.5 buffer and immobilized for approximately 3000-4000 RUs onto all four flow cells by 7-minute injection at flow rate of 10 μL/minute. Unreacted sites are blocked with a 7-minute injection of 1M Ethanolamine-HCl pH 8.5 at 10 μL/minute. Five 30-second injections of glycine pH 1.5 at 10 μL/minute are used to remove any non-covalently associated protein.
Binding is evaluated using multi-cycle kinetics by an antibody capture method. […] All analyte concentrations are determined utilizing monomeric molecular weight (MW) values. Association rates (kₒₙ) and dissociation rates (koff) for PD-1-ECD are evaluated using double referencing by flow-cell 1 reference subtraction in addition to 0 nM blank subtraction and fit to “1:1 (Langmuir) binding” model in the BIAevaluation software version 4.1. […]
(SPR reads the build-up and loss of mass on a sensor chip optically.)

The target of assay [18] is T1, human PD-1 (on cells). The assay is described as follows: cell-based or functional assay. The source holds these as a separate data set.

Sequence of human CD137 (on cells) (Q07011 24-255 limits assumed): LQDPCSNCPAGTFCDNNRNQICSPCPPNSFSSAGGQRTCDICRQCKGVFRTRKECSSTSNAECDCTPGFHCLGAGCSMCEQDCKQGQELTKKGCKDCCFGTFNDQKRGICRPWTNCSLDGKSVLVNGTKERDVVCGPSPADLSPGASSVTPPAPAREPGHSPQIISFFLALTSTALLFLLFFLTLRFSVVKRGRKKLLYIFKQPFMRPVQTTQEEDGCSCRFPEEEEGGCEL
T1 sequence (Q15116 25-288 limits assumed): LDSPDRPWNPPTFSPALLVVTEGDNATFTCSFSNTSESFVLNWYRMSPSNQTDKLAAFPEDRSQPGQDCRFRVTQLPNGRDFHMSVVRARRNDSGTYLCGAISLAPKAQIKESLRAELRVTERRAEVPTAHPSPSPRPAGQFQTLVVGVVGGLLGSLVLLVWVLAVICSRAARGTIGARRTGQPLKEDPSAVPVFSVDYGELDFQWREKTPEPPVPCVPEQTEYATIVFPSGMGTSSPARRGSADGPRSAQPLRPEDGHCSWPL
T13 sequence (Q07011 24-186 Q67R/C121S): as the sequence (Q07011 24-186 A97P/C121S) above, with Q44R, P74A counted along it
T2 sequence (Q07011 24-186 K114E/C121S): as the sequence (Q07011 24-186 A97P/C121S) above, with P74A, K91E counted along it
T14 sequence (Q07011 24-186 D63N/C121S): as the sequence (Q07011 24-186 A97P/C121S) above, with D40N, P74A counted along it
T6 sequence (Q07011 24-186 M101R/C121S): as the sequence (Q07011 24-186 A97P/C121S) above, with P74A, M78R counted along it
T10 sequence (Q07011 24-186 G98Q/C121S): as the sequence (Q07011 24-186 A97P/C121S) above, with P74A, G75Q counted along it
T3 sequence (Q07011 24-186 N42S/C121S): as the sequence (Q07011 24-186 A97P/C121S) above, with N19S, P74A counted along it
T16 sequence (Q15116 25-170 limits assumed): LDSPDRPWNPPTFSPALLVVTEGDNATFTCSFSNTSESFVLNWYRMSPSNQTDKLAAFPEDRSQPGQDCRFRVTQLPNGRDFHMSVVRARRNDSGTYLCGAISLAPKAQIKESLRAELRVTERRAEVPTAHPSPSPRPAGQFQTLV
T15 sequence (Q07011 24-186 limits assumed): as the sequence (Q07011 24-186 A97P/C121S) above, with P74A, S98C counted along it

B1: Antibody p-7A5 (the parental antibody of the anti-CD137 arm of Antibody A) (antibody, V domains shown)
VH: QVQLVQSGAEVKKPGSSVKVSCKASGGTFSSYAISWVRQAPGQGLEWMGGIIPIFGTANYAQKFQGRVTITADESTSTAYMELSSLRSEDTAVYYCARDLMTTAPGTYFDLWGRGTLVTVSS
VL: AIRMTQSPPSLSASVGDRVTITCQASQDIGNSLGWYQQKPGKAPKLVIFDASDLETGVPSRFSGSGSGTDFSLTISSLQPEDFATYYCQQGNSFPLTFGQGTRLEIK
notes: Parental monoclonal anti-CD137 antibody; also called Antibody 7A5; parental antibody 7A5
For B1, the “IFN-γ mean EC50 in allogeneic MLR assay (3 donor pairs)” value in [1] was greater than 32 nM. Moreover, in [1], the “IL-2 mean EC50 in allogeneic MLR assay (3 donor pairs)” value is greater than 32 nM. Moreover, the “% of binding relative to wild-type hCD137” value worked out at 20% in assay [2]; 100% in assay [3]; 15% in [4]; 25% in [5]; 100% in assay [6]; 85% in assay [7]. In addition, the “% of binding relative to wild-type hCD137” value in assay [8], in [9], in assay [10], in [11], in assay [12] and in [13] was 100% throughout. Moreover, the “% of binding relative to wild-type hCD137” value in assay [14] amounted to 100%. Moreover, the affinity in assay [15], expressed as Kd, was 341 nM. Moreover, the “fold induction of NFkB-Luc luciferase signal at 0.01 nM antibody” value in assay [16] stood at 0.98 fold. Besides, in [16], the “fold induction of NFkB-Luc luciferase signal at 0.04 nM antibody” value was found to be 0.88 fold. Besides, the “fold induction of NFkB-Luc luciferase signal at 0.15 nM antibody” value in [16] worked out at 0.94 fold. Moreover, the “fold induction of NFkB-Luc luciferase signal at 0.59 nM antibody” value in assay [16] came out at 1.07 fold. The “fold induction of NFkB-Luc luciferase signal at 2.34 nM antibody” value in assay [16] is 1.66 fold. For the same molecule, the “fold induction of NFkB-Luc luciferase signal at 9.38 nM antibody” value in assay [16] was 2.29 fold. In [16], the “fold induction of NFkB-Luc luciferase signal at 37.50 nM antibody” value turned out to be 2.72 fold. Moreover, the “fold induction of NFkB-Luc luciferase signal at 150.00 nM antibody” value in assay [16] was 2.6 fold.

B2: BMS20H4.9 (antibody, V domains shown)
VH: QVQLQQWGAGLLKPSETLSLTCAVYGGSFSGYYWSWIRQSPEKGLEWIGEINHGGYVTYNPSLESRVTISVDTSKNQFSLKLSSVTAADTAVYYCARDYGPGNYDWYFDLWGRGTLVTVSS
VL: EIVLTQSPATLSLSPGERATLSCRASQSVSSYLAWYQQKPGQAPRLLIYDASNRATGIPARFSGSGSGTDFTLTISSLEPEDFAVYYCQQRSNWPPALTFGGGTKVEIKR
Take B2: the “% of binding relative to wild-type hCD137” value in [2], in assay [4], in assay [5], in assay [6], in [7] and in [8] was 100% each time. Further, the “% of binding relative to wild-type hCD137” value stood at 85% in assay [9]; 100% in [10]; 100% in assay [11]; 100% in assay [12]; 100% in assay [13]; 100% in assay [14].

B3: Antibody p-11444 (the parental antibody of the anti-PD1 arm of Antibody A) (antibody, V domains shown)
VH: QVQLVQSGAEVKKPGSSVKVSCKASGGTFSSYAISWVRQAPGQGLEWMGLIIPMFDTAGYAQKFQGRVAITVDESTSTAYMELSSLRSEDTAVYYCARAEHSSTGTFDYWGQGTLVTVSS
VL: DIQMTQSPSSVSASVGDRVTITCRASQGISSWLAWYQQKPGKAPKLLISAASSLQSGVPSRFSGSGSGTDFTLTISSLQPEDFATYYCQQANHLPFTFGGGTKVEIK
notes: Parental monoclonal anti-PD-1 antibody
Take B3: in [1], the “IFN-γ mean EC50 in allogeneic MLR assay (3 donor pairs)” value stood at 88 pM and the “IL-2 mean EC50 in allogeneic MLR assay (3 donor pairs)” value turned out to be 0.238 nM. In [17], the dissociation constant Kd (commonly the free concentration of one partner at which half of the binding sites on the other are occupied at equilibrium, for simple one-to-one binding) came out at 3.1 nM. In addition, in assay [18], the “EC50, NFAT-Luc reporter assay (Jurkat PD-1+CD137+NFAT-Luc2 cells with CHO-K1 PD-L1+TCR activator cells)” value was 1.4 nM.

The values are drawn from patent publication US20210292416A1 (Eli Lilly, published 2021).
